The results in this text go back to patent US20080200369A1 (SANFORD BURNHAM MEDICAL RESEARCH INSTITUTE, published 2008).

This assay has as its target T1, [^35S]-tastin (UniProt Q12815 1-778, limits assumed, [^35S]-methionine labeled).
T1 construct: also called in vitro translated [^35S]-labeled tastin
T1 sequence (looked up): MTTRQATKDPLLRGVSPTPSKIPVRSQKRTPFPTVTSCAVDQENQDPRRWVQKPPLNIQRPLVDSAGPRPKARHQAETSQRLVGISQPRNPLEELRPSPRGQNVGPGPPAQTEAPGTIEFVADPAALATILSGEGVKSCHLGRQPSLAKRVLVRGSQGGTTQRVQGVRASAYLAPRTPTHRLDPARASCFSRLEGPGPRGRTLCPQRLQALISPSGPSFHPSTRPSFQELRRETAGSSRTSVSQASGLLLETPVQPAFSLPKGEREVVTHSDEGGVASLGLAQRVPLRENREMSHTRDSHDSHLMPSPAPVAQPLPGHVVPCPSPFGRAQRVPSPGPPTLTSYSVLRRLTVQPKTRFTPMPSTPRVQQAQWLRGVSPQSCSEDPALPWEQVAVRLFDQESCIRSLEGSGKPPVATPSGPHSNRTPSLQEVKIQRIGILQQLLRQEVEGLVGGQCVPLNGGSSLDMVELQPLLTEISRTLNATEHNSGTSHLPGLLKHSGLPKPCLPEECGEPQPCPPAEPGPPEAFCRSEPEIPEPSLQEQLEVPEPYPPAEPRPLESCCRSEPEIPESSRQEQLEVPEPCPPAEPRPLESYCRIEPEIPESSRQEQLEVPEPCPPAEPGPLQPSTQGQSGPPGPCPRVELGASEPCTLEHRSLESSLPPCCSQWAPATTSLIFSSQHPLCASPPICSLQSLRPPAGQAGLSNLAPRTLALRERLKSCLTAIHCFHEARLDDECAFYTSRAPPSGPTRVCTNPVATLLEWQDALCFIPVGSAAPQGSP
Nature of the assay: GST pull-down of in vitro translated [^35S]-protein on glutathione beads, autoradiography (FIG. 7A). On the procedure:
In vitro translated [³⁵S]-labeled trophinin, bystin or tastin was incubated with GST or GST-ErbB4 immobilized on glutathione beads. Bead-bound materials were visualized by autoradiography after gel electrophoresis. […] Bead-bound materials were visualized by autoradiography. Note that trophinin is captured by GSTErbB4 when bystin is present. […] HT-H cells treated with or without GWRQ peptide were subjected to immunoprecipitation with antiErbB4 antibody, followed by western blot analysis. Note that trophinin and bystin were co-immunoprecipitated with ErbB4 from cells not treated with GWRQ, whereas less trophinin was present in precipitates from GWRQ-treated cells.
A GST-fusion protein pull-down assay was carried out as described (Swaffield, J C, et al. 1996). Trophinin, bystin, and tastin proteins were produced as [³⁵S]-methionine labeled proteins using an vitro transcription and translation kit (TnT, Promega), according to the manufacturer's protocol. [³⁵S]-trophinin, [³⁵S]-bystin, and [³⁵S]-tastin were mixed individually with GSTErbB4 immobilized on glutathione beads in binding buffer (Swaffield, J C, et al. 1996) at 4° C. for 1 hour. After washing unbound materials with binding buffer, bead-bound material was eluted by boiling in SDS sample buffer. [³⁵S]-labeled proteins eluted were analyzed by SDS-PAGE followed by fluorography.

B1: GST-ErbB4 fusion protein (cytoplasmic domain of human ErbB4) (other, UniProt Q15303 676-1308, looked up)
chain: RRKSIKKKRALRRFLETELVEPLTPSGTAPNQAQLRILKETELKRVKVLGSGAFGTVYKGIWVPEGETVKIPVAIKILNETTGPKANVEFMDEALIMASMDHPHLVRLLGVCLSPTIQLVTQLMPHGCLLEYVHEHKDNIGSQLLLNWCVQIAKGMMYLEERRLVHRDLAARNVLVKSPNHVKITDFGLARLLEGDEKEYNADGGKMPIKWMALECIHYRKFTHQSDVWSYGVTIWELMTFGGKPYDGIPTREIPDLLEKGERLPQPPICTIDVYMVMVKCWMIDADSRPKFKELAAEFSRMARDPQRYLVIQGDDRMKLPSPNDSKFFQNLLDEEDLEDMMDAEEYLVPQAFNIPPPIYTSRARIDSNRSEIGHSPPPAYTPMSGNQFVYRDGGFAAEQGVSVPYRAPTSTIPEAPVAQGATAEIFDDSCCNGTLRKPVAPHVQEDSSTQRYSADPTVFAPERSPRGELDEEGYMTPMRDKPKQEYLNPVEENPFVSRRKNGDLQALDNPEYHNASNGPPKAEDEYVNEPLYLNTFANTLGKAEYLKNNILSMPEKAKKAFDNPDYWNHSLPPRSTLQHPDYLQEYSTKYFYKQNGRIRPIVAENPEYLSEFSLKPGTVLPPPPYRHRNTVV
notes: domain: cytoplasmic domain; Expressed in bacteria, immobilized on glutathione beads; Linker between GST and ErbB4 not described; not shown: glutathione S-transferase encoded by the vector pGEX-KG
Take B1: the binding result is “no binding”.
